Reference: publication PMC5012860

Target: T1, UHRF1 wild-type (human) (UniProt Q96T88)
T1 sequence: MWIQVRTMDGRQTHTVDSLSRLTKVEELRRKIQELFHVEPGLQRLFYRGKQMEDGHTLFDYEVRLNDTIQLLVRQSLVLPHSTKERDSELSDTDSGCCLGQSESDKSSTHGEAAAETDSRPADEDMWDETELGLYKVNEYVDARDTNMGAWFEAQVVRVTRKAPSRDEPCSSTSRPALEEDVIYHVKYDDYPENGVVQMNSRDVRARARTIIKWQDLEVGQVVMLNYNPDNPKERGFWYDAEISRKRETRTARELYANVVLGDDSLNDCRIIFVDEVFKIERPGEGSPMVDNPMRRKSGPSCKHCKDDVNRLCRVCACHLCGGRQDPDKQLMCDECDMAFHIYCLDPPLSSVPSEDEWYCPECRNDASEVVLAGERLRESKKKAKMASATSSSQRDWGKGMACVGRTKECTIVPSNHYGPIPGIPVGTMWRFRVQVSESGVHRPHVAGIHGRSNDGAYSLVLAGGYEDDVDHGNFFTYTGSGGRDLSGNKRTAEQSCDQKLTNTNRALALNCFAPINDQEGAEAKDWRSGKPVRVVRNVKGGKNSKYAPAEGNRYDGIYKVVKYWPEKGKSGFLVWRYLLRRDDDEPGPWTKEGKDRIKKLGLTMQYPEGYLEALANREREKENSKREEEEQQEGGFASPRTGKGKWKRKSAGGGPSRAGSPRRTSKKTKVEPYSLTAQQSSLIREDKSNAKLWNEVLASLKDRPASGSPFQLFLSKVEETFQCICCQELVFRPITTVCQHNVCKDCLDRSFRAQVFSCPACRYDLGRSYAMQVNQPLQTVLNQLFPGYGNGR
Test: fluorescence polarization
Conditions: 50 mM vs 150 mM NaCl; 5mC at position 6 of strand 2 (GTCAG5mCGCATGG); 25 mM HEPES pH 7.5, 0.05% NP-40, 100 mM NaCl (unless indicated), 10 nM FAM-DNA, 10 min, 25 C; scale: fold affinity difference between 50 and 150 mM NaCl

## CCATGCGCTGAC (double strand) [HeDNA]
  binding signal: 500
